The record followed here is patent publication US20200248181.

pKd: −log10 of the molar value.

Usually pKd stands for the Kd on a negative log10 scale, so that one unit is a factor of ten.

The series concerns gluten (wheat allergen). Put plainly: SPR. To be noted: 20-mer poly(dA) added at 5' end for SPR immobilization; 40 mM HEPES pH 7.5, 125 mM NaCl, 5 mM KCl, 1 mM MgCl2, 0.01% Tween 20; aptamer immobilized via poly(dA)/biotin-poly(dT).

In the case of GAGGTTGGGTGGGGGAGG [Aptamer 2], the pKd was 7.73.
In the case of “GAGGTTGGGTGGGGGAGGCAGCATGCGGGA [Aptamer 1]” it was 7.84.
